For the test, the target named is single antigen M1 peptide segment of monkeypox virus (monkeypox virus isolate MPXV_USA_2022_MA001) (UniProt M1LBP0).
UniProt M1LBP0, sequence (M1LBP0 1-181 limits assumed): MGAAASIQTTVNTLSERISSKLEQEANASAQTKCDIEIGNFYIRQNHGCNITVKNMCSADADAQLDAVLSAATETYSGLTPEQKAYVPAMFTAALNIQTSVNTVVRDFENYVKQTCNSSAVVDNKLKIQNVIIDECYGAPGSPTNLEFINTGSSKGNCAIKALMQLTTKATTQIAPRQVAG

In turn, neutralizing antibody 7D11 showed a koff of 0.00476 s⁻¹ and an on-rate constant (kon) of 1.44e+06 M⁻¹ s⁻¹.

What is called koff is the first-order rate constant of dissociation. A low value points to a long-lived complex. In general, kon refers to the second-order rate constant of association. Low readings indicate slower complex formation, high ones faster complex formation.

Values taken from patent US20260226110A1.
